Experimental findings from PMC5291321 are described below.

For this assay, the target named is full-length Cbln1 (Cbln1FL) (human) (UniProt P23435). Put plainly: ITC.

Broadly, the Kd is the free concentration of one partner at which half of the binding sites on the other are occupied at equilibrium, for simple one-to-one binding. A low value points to a tighter complex.

full-length Cbln1 (Cbln1FL) (human), sequence (P23435 22-193): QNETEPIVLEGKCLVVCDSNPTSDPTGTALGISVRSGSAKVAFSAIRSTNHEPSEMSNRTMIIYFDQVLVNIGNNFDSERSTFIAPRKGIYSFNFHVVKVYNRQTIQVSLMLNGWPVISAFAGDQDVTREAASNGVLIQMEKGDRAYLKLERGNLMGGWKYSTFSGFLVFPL

“β-neurexin-1 with spliced sequence #4 (β-NRX1(+4)) (domain or fragment)” displayed a Kd of 43.5 nM and a stoichiometry N (β-NRX1(+4) per Cbln1 hexamer) of 1.
